From patent US20200199213A1 (Eli Lilly, published 2020) come the findings set out here.

The target in test [1] is T1, human ANGPTL3 (human, UniProt Q9Y5C1 17-460).
T1 construct: Biotinylated in the ELISA assays; also called hANGPTL3; free ANGPTL3
T1 sequence: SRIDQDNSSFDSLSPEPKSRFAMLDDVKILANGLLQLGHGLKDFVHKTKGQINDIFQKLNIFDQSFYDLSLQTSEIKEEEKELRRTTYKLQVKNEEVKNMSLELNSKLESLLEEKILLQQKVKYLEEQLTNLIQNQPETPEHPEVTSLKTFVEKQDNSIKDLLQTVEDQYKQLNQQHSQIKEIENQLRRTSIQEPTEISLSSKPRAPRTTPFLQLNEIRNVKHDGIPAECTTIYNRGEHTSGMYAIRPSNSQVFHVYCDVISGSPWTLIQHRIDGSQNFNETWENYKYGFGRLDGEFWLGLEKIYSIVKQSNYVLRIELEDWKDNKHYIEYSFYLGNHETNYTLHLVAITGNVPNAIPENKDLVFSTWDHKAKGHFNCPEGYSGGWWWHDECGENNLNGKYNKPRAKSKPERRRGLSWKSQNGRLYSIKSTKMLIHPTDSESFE
Kind of test: ELISA; Ab captured by anti-human Fc; biotinylated antigen at 3.70 nM. The protocol: (§1) ELISA Assay: Ab binding selectivity to either the ANGPTL3/8 complex, free ANGPTL3 or free ANGPTL8 is verified using standard ELISA assays. […] Ab from CHO supernatants after expression in CHO cells is then captured to the assay plate and results is an Ab concentration of 2 μg/ml. Biotinylated antigen (ANGPTL3, ANGPTL8 or ANGPTL3/8 complex) is added at varying concentrations by serial dilution to allow for Ab/antigen binding. Ab/antigen complexes are detected after the addition of alkaline phosphatase-conjugated neutravidin, and alkaline phosphatase substrate, and subsequent measurement of the optical density at 560 nm.

Test [2] concerns the target T2, human ANGPTL3/8 complex (human, UniProt Q9Y5C1 17-460; Q6UXH0 22-198, limits assumed).
T2 construct: also called hANGPTL3/8 complex; ANGTPL3/8 complex
T2 sequence 1: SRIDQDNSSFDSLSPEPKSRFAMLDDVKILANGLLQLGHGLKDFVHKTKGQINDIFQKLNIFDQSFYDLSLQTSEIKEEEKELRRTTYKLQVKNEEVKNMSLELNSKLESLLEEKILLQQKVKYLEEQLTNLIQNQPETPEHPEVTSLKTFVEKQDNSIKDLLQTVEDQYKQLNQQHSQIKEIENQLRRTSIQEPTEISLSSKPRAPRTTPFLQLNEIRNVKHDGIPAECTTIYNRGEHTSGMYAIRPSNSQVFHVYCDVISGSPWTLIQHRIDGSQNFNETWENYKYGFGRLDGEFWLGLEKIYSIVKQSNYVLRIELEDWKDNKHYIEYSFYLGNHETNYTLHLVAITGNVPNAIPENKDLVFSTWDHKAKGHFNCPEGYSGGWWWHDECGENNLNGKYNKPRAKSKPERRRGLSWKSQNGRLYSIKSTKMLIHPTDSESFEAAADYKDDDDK
T2 sequence 2: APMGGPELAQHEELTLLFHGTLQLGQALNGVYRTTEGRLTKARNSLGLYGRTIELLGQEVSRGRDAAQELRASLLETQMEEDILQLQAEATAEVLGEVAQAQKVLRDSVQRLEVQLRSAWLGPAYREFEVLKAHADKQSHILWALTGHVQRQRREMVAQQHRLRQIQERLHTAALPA
In words: ELISA; Ab captured by anti-human Fc; biotinylated antigen at 33.3 nM. As to the method:
as §1
Background: ELISA stands for enzyme-linked immunosorbent assay.

The target of test [3] is T3, human ANGPTL8 (human, UniProt Q6UXH0 22-198).
T3 construct: Biotinylated in the ELISA assays; also called hANGPTL8; free ANGPTL8
T3 sequence: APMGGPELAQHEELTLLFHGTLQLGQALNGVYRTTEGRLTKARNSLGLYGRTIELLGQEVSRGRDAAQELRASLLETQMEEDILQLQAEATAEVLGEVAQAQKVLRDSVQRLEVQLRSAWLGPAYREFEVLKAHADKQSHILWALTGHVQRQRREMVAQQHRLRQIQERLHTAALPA
The test is described as above. The protocol: as §1

Test [4] concerns the target T1, human ANGPTL3. The test is described as above. The protocol: as §1
The target of test [5] is T2, human ANGPTL3/8 complex. Kind of test: ELISA; Ab captured by anti-human Fc; biotinylated antigen at 0.046 nM. The protocol: as §1
Test [6] has as its target T3, human ANGPTL8. The test is described as above. The protocol: as §1
The target of test [7] is T1, human ANGPTL3. Described as above. As to the method:
as §1

Test [8] addresses T2, human ANGPTL3/8 complex. In words: ELISA; Ab captured by anti-human Fc; biotinylated antigen at 0.412 nM. The protocol: as §1
The target of test [9] is T3, human ANGPTL8. The test is described as above. As to the method:
as §1

For test [10], the target named is T1, human ANGPTL3. Described as above. The protocol:
as §1

The target in test [11] is T2, human ANGPTL3/8 complex. In words: single point ELISA; IgG captured by anti-human Fc; biotinylated antigen at 25 nM. The protocol:
(§2) Single Point ELISA (SPE) Assay: Ab binding selectivity to either the ANGPTL3/8 complex, free ANGPTL3 or free ANGPTL8 is initially verified using standard ELISA assays in a single point format. […] IgG secreted into supernatants after expression in CHO cells are then captured to the assay plate. Biotinylated antigen is added at a concentration of 25 nM to allow for Ab/antigen binding. Ab/antigen complexes are detected after adding alkaline phosphatase-conjugated neutravidin and alkaline phosphatase substrate, and subsequent measurement of the optical density at 560 nm. Positive binding is determined by a signal greater than 3 fold over the non-binding background signal.

For test [12], the target named is T3, human ANGPTL8. The description is as above. The protocol:
as §2

The target in test [13] is T1, human ANGPTL3. The description is as above. The protocol:
as §2

B1: anti-ANGPTL3/8 complex Ab having a LC of SEQ ID NO:5 and a HC of SEQ ID NO:6 (antibody, human IgG4 S228P, kappa, F234A L235A, V domains shown)
VH: QVTLKESGPTLVKPTQTLTLTCTFSGFSLSISGVGVGWIRQPPGKALEWLALIYRNDDKRYSPSLKSRLTITKDTSKNQVVLTLTNMDPVDTATYYCARTYSSGWYGNWFDPWGQGTLVTVSS
VL: DIVMTQTPLSLPVTPGEPASISCRSSQSLLDSDDGNTYLDWYLQKPGQSPQLLIYMLSYRASGVPDRFSGSGSGTDFTLKISRVEAEDVGIYYCMQRIEFPLTFGGGTKVEIKR
notes: In the ELISA assays tested as IgG from CHO supernatants; also called the Ab
In the case of B1, the “OD at 560 nm” value with human ANGPTL3 [1] was found to be 0.046 OD 560 nm; with human ANGPTL3/8 complex [2], 2.41 OD 560 nm; in the test with human ANGPTL8 [3], 0.05 OD 560 nm; in the test with human ANGPTL3 [4], 0.052 OD 560 nm; with human ANGPTL3/8 complex [5], 0.078 OD 560 nm; with human ANGPTL8 [6] it was 0.051 OD 560 nm. The “OD at 560 nm” value with human ANGPTL3 [7] is 0.06 OD 560 nm; in the test with human ANGPTL3/8 complex [8], 0.231 OD 560 nm; in the test with human ANGPTL8 [9], 0.046 OD 560 nm; in the test with human ANGPTL3 [10], 0.043 OD 560 nm; with human ANGPTL3/8 complex [11], 2.3 OD 560 nm; in the test with human ANGPTL8 [12], 0.087 OD 560 nm. Moreover, the “OD at 560 nm” value with human ANGPTL3 [13] turned out to be 0.074 OD 560 nm.

B2: Ab with LC variant having a E99Q mutation (SEQ ID NO:25) and a HC of SEQ ID NO:6 (antibody, human IgG4 S228P, kappa, F234A L235A, V domains shown)
VH: QVTLKESGPTLVKPTQTLTLTCTFSGFSLSISGVGVGWIRQPPGKALEWLALIYRNDDKRYSPSLKSRLTITKDTSKNQVVLTLTNMDPVDTATYYCARTYSSGWYGNWFDPWGQGTLVTVSS
VL: DIVMTQTPLSLPVTPGEPASISCRSSQSLLDSDDGNTYLDWYLQKPGQSPQLLIYMLSYRASGVPDRFSGSGSGTDFTLKISRVEAEDVGIYYCMQRIQFPLTFGGGTKVEIKR
notes: also called E99Q Variant Ab; E99Q Ab
B2: the “OD at 560 nm” value with human ANGPTL3 [1] turned out to be 0.06 OD 560 nm; with human ANGPTL3/8 complex [2], 2.23 OD 560 nm; in the test with human ANGPTL8 [3] it was 0.063 OD 560 nm; with human ANGPTL3 [4] it was 0.069 OD 560 nm; with human ANGPTL3/8 complex [5], 0.149 OD 560 nm; in the test with human ANGPTL8 [6], 0.096 OD 560 nm. In addition, the “OD at 560 nm” value in the test with human ANGPTL3 [7] was found to be 0.06 OD 560 nm; with human ANGPTL3/8 complex [8], 0.234 OD 560 nm; in the test with human ANGPTL8 [9], 0.062 OD 560 nm; with human ANGPTL3 [10] it was 0.058 OD 560 nm; with human ANGPTL3/8 complex [11], 1.54 OD 560 nm; with human ANGPTL8 [12], 0.1 OD 560 nm. Besides, the “OD at 560 nm” value with human ANGPTL3 [13] was found to be 0.083 OD 560 nm.

B3: Ab with LC variant having a D31S mutation (SEQ ID NO:21) and a HC of SEQ ID NO:6 (antibody, human IgG4 S228P, kappa, F234A L235A, V domains shown)
VH: QVTLKESGPTLVKPTQTLTLTCTFSGFSLSISGVGVGWIRQPPGKALEWLALIYRNDDKRYSPSLKSRLTITKDTSKNQVVLTLTNMDPVDTATYYCARTYSSGWYGNWFDPWGQGTLVTVSS
VL: DIVMTQTPLSLPVTPGEPASISCRSSQSLLSSDDGNTYLDWYLQKPGQSPQLLIYMLSYRASGVPDRFSGSGSGTDFTLKISRVEAEDVGIYYCMQRIEFPLTFGGGTKVEIKR
notes: also called D31S Variant Ab; D31S Ab
As for B3, the “OD at 560 nm” value amounted to 0.06 OD 560 nm in the test with human ANGPTL3 [1]; 2.23 OD 560 nm with human ANGPTL3/8 complex [2]; 0.063 OD 560 nm with human ANGPTL8 [3]; 0.069 OD 560 nm in the test with human ANGPTL3 [4]; 0.149 OD 560 nm with human ANGPTL3/8 complex [5]; 0.096 OD 560 nm in the test with human ANGPTL8 [6]. Besides, the “OD at 560 nm” value in the test with human ANGPTL3 [7] was found to be 0.06 OD 560 nm; with human ANGPTL3/8 complex [8], 0.234 OD 560 nm; with human ANGPTL8 [9], 0.062 OD 560 nm; with human ANGPTL3 [10], 0.058 OD 560 nm; with human ANGPTL3/8 complex [11], 0.928 OD 560 nm; with human ANGPTL8 [12] it was 0.072 OD 560 nm. For the same molecule, in the test with human ANGPTL3 [13], the “OD at 560 nm” value amounted to 0.058 OD 560 nm.

B4: Ab with LC variant having a D33A mutation (SEQ ID NO:22) and a HC of SEQ ID NO:6 (antibody, human IgG4 S228P, kappa, F234A L235A, V domains shown)
VH: QVTLKESGPTLVKPTQTLTLTCTFSGFSLSISGVGVGWIRQPPGKALEWLALIYRNDDKRYSPSLKSRLTITKDTSKNQVVLTLTNMDPVDTATYYCARTYSSGWYGNWFDPWGQGTLVTVSS
VL: DIVMTQTPLSLPVTPGEPASISCRSSQSLLDSADGNTYLDWYLQKPGQSPQLLIYMLSYRASGVPDRFSGSGSGTDFTLKISRVEAEDVGIYYCMQRIEFPLTFGGGTKVEIKR
notes: also called D33A Variant Ab; D33A Ab
As to B4, the “OD at 560 nm” value was found to be 0.056 OD 560 nm with human ANGPTL3 [1]; 2.18 OD 560 nm in the test with human ANGPTL3/8 complex [2]; 0.049 OD 560 nm with human ANGPTL8 [3]; 0.067 OD 560 nm with human ANGPTL3 [4]; 0.111 OD 560 nm with human ANGPTL3/8 complex [5]; 0.074 OD 560 nm with human ANGPTL8 [6]. The “OD at 560 nm” value turned out to be 0.062 OD 560 nm in the test with human ANGPTL3 [7]; 0.196 OD 560 nm with human ANGPTL3/8 complex [8]; 0.047 OD 560 nm with human ANGPTL8 [9]; 0.056 OD 560 nm with human ANGPTL3 [10]; 0.898 OD 560 nm with human ANGPTL3/8 complex [11]; 0.118 OD 560 nm with human ANGPTL8 [12]. Moreover, the “OD at 560 nm” value in the test with human ANGPTL3 [13] amounted to 0.076 OD 560 nm.
